These results are taken from paper PMC6656783, “ABCE1 Controls Ribosome Recycling by an Asymmetric Dynamic Conformational Equilibrium” (Cell Reports, 2019).

For orientation: pKd means −log10 of the Kd, conventionally taken in molar units. A word on the koff: it is the first-order rate constant of dissociation. As usually defined, the kon is the second-order rate constant of association.

pKd: −log10 of the molar value.

One assay deals with T1, ABCE1 (Saccharolobus solfataricus, UniProt Q980K5, K177C/T393C).
T1 construct: gene SSO0287; full length with N-terminal FeS cluster domain, C-terminal His6 tag, pSA4 vector, expressed in E. coli BL21(DE3) pRARE; about 70 kDa
Nature of the assay: malachite green ATPase assay. Type of assay: biochemical. The note with it: site II variant, before and after Cy3B/Atto647N labelling of the protein; 5 mM ATP, 10 mM MgCl2, pH 7.5, 80 °C.

For assay [1], the target named is 30S ribosomal subunit from Sulfolobus solfataricus (Sulfolobus solfataricus). Nature of the assay: burst-length (diffusion) analysis in single-molecule ALEX/smFRET; titration of 30S; percentage of 30S-bound ABCE1 at each concentration; 2 mM AMP-PNP, 73°C, 10 min.
Assay [2] shares this target. Nature of the assay: dissociation time course by burst-length analysis in single-molecule ALEX/smFRET; 30 nM labelled ABCE1 with 25 μM AMP-PNP and 12.5 μM 30S, 73°C 10 min; then 630-fold dilution with 2 μM unlabelled ABCE1, dissociation followed at 73°C for 0-10 min; the association rate is estimated from this rate and the KD.

Take `Nc1ncnc2c1ncn2[C@@H]1O[C@H](COP(=O)(O)OP(=O)(O)OP(=O)(O)O)[C@@H](O)[C@H]1O` [ATP]: the “malachite green ATPase assay” value at ABCE1 is recorded as “verified by determining the basal ATP hydrolysis, which was similar to the wild type”.
Compound “ABCE1^K177C/T393C (site II variant), labelled with Cy3B and Atto647N (enzyme)” gave a negative-log Kd (pKd) in assay [1] of 7.70. In assay [2], the koff was 0.00833 s⁻¹ and the on-rate constant (kon) is 400000 M⁻¹ s⁻¹.
